Among the data in the RNAGym collection of RNA variant scans (doi:10.7554/elife.80360) are self-cleavage values, retold here.

The chains are these.
B1: HDV Ribozyme (parent)
chain: GGCCGGCAUGGUCCCAGCCUCCUCGCUGGCGCCGGCUGGGCAACAUUCCGAGGGGACCGUCCCCUCGGUAAUGGCGAAUGGGACCCA

This data set covers variants of B1. Put plainly: self-cleavage, relative activity (ratio to wild type); higher = more cleavage; co-transcriptional.
Turning to GGCCGACAUGGUCCCAGCCUCCUCGCUGGCGCCGGCUGGGCAGCAUUCCGAGGGGACCGUCCCCUCGGUAAUGGCGAAUGGGACCCA [G6A A43G], the self-cleavage was 0.277. With GGCCGACAUGGUCCCAGCCUCCUCGCUGGCGCCGGCUGGGCACCAUUCCGAGGGGACCGUCCCCUCGGUAAUGGCGAAUGGGACCCA [G6A A43C] the figure was 0.0489. For GGCCUGCAUGGUCCCAGCCUCCUCGCUGGCGCCGGCUGCGCAACAUUCCGAGGGGACCGUCCCCUCGGUAAUGGCGAAUGGGACCCA [G5U G39C], the self-cleavage was found to be 0.26. With GGCCUGCAUGGUCCCAGCCUCCUCGCUGGCGCCGGCUGGGCAACAUUCCGAGGGGAUCGUCCCCUCGGUAAUGGCGAAUGGGACCCA [G5U C57U] the figure was 0.604; with GGCCUGCAUGGUCCCAGCCUCCUCGCUGGCGCCGGCUGGGCAACAUUCCGAGGGGAGCGUCCCCUCGGUAAUGGCGAAUGGGACCCA [G5U C57G], 0.256; with GGCCGACAUGGUCCCAGCCUCGUCGCUGGCGCCGGCUGGGCAACAUUCCGAGGGGACCGUCCCCUCGGUAAUGGCGAAUGGGACCCA [G6A C22G], 0.0739. The value for GGCCGACAUGGUCCCAGCCUCCUCGCUGGCGCCGGCUGGGCAACAUUCCGAGGGGAACGUCCCCUCGGUAAUGGCGAAUGGGACCCA [G6A C57A] was 0.966; that for GGCCGACAUGGUCCCAGCCUCCUCGCUGGCGCCGGCUGGGCAACAUUCCGAGGGGAGCGUCCCCUCGGUAAUGGCGAAUGGGACCCA [G6A C57G] was 0.643.

Take GGCCGACAUGGUCCCAGCCUCCUCGCUGGCGCCGGCUGGGCAACAUUCCGAGGGGACCGUCCCCUCGGUAAUGGCGAAUGGGAACCA [G6A C84A]: the self-cleavage worked out at 0.431.

In the case of GGCCGACAUGGUCCCAGCCUCCUCGCUGGGGCCGGCUGGGCAACAUUCCGAGGGGACCGUCCCCUCGGUAAUGGCGAAUGGGACCCA [G6A C30G], the self-cleavage came to 0.0678.

As to GGCCUGCAUGGUCCCAGCCUCCUCGCUGGCGCCGGCUGGGCAACAUUCCGAGGGGACCGUCCCCUCGCUAAUGGCGAAUGGGACCCA [G5U G68C], the self-cleavage was found to be 0.359. The value for GGCCGACAUGGUCCCAGCUUCCUCGCUGGCGCCGGCUGGGCAACAUUCCGAGGGGACCGUCCCCUCGGUAAUGGCGAAUGGGACCCA [G6A C19U] was 0.0875; that for GGCCGACAUGGUCCCAGCCUCCUCGCUGGCGCCGGCUGGGCAACAUUCCGAGGGGACCGUCCCCUCGGUAAUGGCGAAUGGGACUCA [G6A C85U] was 0.735; that for GGCCGACAUGGUCCCAGCCUCCUCGCUGGCGCCGGCUGGGCAACAUUCCGAGGGGACCGUCCCCUCGGUAAUGGCGAAUGGGACGCA [G6A C85G] was 0.608. For the variant GGCCUGCAUGGUCCCAGCCUCCUCGCUGGCGCCGGCUGGGCAACAUUCCGAGGGGACCGUCGCCUCGGUAAUGGCGAAUGGGACCCA [G5U C62G], the self-cleavage is 0.346. GGCCUGCAUGGUCCCAGCCUCCUCGCUGGCGCCGGCUGGGCAACAUUCCGAGGGGACCGUCCCCUCGGUAAUGGCGAAUAGGACCCA [G5U G80A]: the self-cleavage came to 0.208. The value for GGCCUGCAUGGUCCCAGCCUCCUCGCUGGCGCCAGCUGGGCAACAUUCCGAGGGGACCGUCCCCUCGGUAAUGGCGAAUGGGACCCA [G5U G34A] was 0.0875.

GGCCUGCAUGGUCCCAGCCUCCUCGCUAGCGCCGGCUGGGCAACAUUCCGAGGGGACCGUCCCCUCGGUAAUGGCGAAUGGGACCCA [G5U G28A]: the self-cleavage stood at 0. With GGCCUGCAUGGUCCCAGCCUCCUCGCUUGCGCCGGCUGGGCAACAUUCCGAGGGGACCGUCCCCUCGGUAAUGGCGAAUGGGACCCA [G5U G28U] the figure was 0.115. On to GGCCUGCAUGGUCCCAGCCUCCUCGCUGGCGCCGGCAGGGCAACAUUCCGAGGGGACCGUCCCCUCGGUAAUGGCGAAUGGGACCCA [G5U U37A], for which the self-cleavage worked out at 0.0723. With GGCCUGCAGGGUCCCAGCCUCCUCGCUGGCGCCGGCUGGGCAACAUUCCGAGGGGACCGUCCCCUCGGUAAUGGCGAAUGGGACCCA [G5U U9G] the figure was 0.554; with GGCCUGCACGGUCCCAGCCUCCUCGCUGGCGCCGGCUGGGCAACAUUCCGAGGGGACCGUCCCCUCGGUAAUGGCGAAUGGGACCCA [G5U U9C], 0.332. With GGCCUGCAUGGUCCCAGCCUCCUCGCUGGCGCCGGCUGGGCAACAUUCCGAGGGGACCGUCCCCUCGGGAAUGGCGAAUGGGACCCA [G5U U69G] the figure was 0.485. The value for GGCCUGCAUGGUCCCAGCCUCCUCGCUGGCGCCGGCUGGGCAACAUUCCGAGGGGACCGUCCCCUCGGUAAUGGCGAAUGGGAACCA [G5U C84A] was 0.302; that for GGCCGACAUGGUCCCAGCCUCCUCGCUGGCGCCGGCUGGGCAACCUUCCGAGGGGACCGUCCCCUCGGUAAUGGCGAAUGGGACCCA [G6A A45C] was 0.0519; that for GGCCGACAUGGUCCCAGCCUCCUCGCUGGCGCCGGCUGGGCAACGUUCCGAGGGGACCGUCCCCUCGGUAAUGGCGAAUGGGACCCA [G6A A45G] was 0.425. Take GGCCGACAUGGUCCCAGCCUCCUCGCUGGCGCCGGCUGGGCAACAUUCCGAGGGGACAGUCCCCUCGGUAAUGGCGAAUGGGACCCA [G6A C58A]: the self-cleavage is 0.724. The value for GGCCUGCAUGGUCCCAGCCUCCUCGCUGGCGCCGGCUGGGCAACAUUCCGAGGGGACCGUCCCCUCGGUAAUGCCGAAUGGGACCCA [G5U G74C] was 0.0475.

For the variant GGCCUGCAUGGUCCCAGCCUCCUCGCUGGCGCCGGCUGGGCAACAUUCCGAGGGGACCGUCCCCUCGGUAAUGACGAAUGGGACCCA [G5U G74A], the self-cleavage was 0.125. The value for GGCCUGCAUGGUCCCAGCCUCCUCGCUGGCGCCGGCUGGGCAACAUUCCGAGGGGACCGUCCCCUCGGUAAUGGCAAAUGGGACCCA [G5U G76A] was 0.391. With GGCCUUCAUGGUCCCAGCCUCCUCGCUGGCGCCGGCUGGGCAACAUUCCGAGGGGACCGUCCCCUCGGUAAUGGCGAAUGGGACCCA [G5U G6U] the figure was 0.

Regarding GGCCUCCAUGGUCCCAGCCUCCUCGCUGGCGCCGGCUGGGCAACAUUCCGAGGGGACCGUCCCCUCGGUAAUGGCGAAUGGGACCCA [G5U G6C], the self-cleavage was 0.
